This series concerns RcGTA gp1 (small terminase TerS), MBP fusion (Rhodobacter capsulatus SB1003). Put plainly: EMSA. As to conditions: 25 mM HEPES pH 8.0, 50 mM K-glutamate, 1 mM DTT, 0.05% Triton X-100, 4% glycerol, 1 ug poly(dI-dC), 100 ng DNA in 10 ul, room temperature 30 min; 0.8% agarose ….

Turning to rcc01397 flanking amplicon, the binding signal (% bound at 40 uM protein) turned out to be 87. The value for rcc01398 flanking amplicon (1.4 kbp) was 87.
